Experiment: specific initial activity, cyclohex-2-enone reduction (U mg-1); higher = more active
Protocol: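 Specific initial activity of purified ene reductases with 10 mM cyclohex-2-enone and 0.2 mM NAD(P)H in 50 mM sodium phosphate pH 7.4 with 0-45% (v/v) ethanol or methanol, at set reaction temperatures of 25-45 °C. NAD(P)H depletion was followed at 340 nm for 480 s, in triplicate.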

MSFVKDFKPQALGDTNLFKPIKIGNNELLHRAVIPPLTRMRALHPGNIPNRDWAVEYYTQRAQRPGTMIITEGAFISPQAGGYDNAPGVWSEEQMVEWTKIFNAIHEKKSFVWVQLWVLGWAAFPDNLARDGLRYDSASDNVFMDAEQEAKAKKANNPQHSLTKDEIKQYIKEYVQAAKNSIAAGADGVEIHSANGYLLNQFLDPHSNTRTDEYGGSIENRARFTLEVVDALVEAIGHEKVGLRLSPYGVFNSMSGGAETGIVAQYAYVAGELEKRAKAGKRLAFVHLVEPRVTNPFLTEGEGEYEGGSNDFVYSIWKGPVIRAGNFALHPEVVREEVKDKRTLIGYGRFFISNPDLVDRLEKGLPLNKYDRDTFYQMSAHGYIDYPTYEEALKLGWDKK
specific initial activity
Conditions	co-solvent: ethanol	co-solvent: methanol
co-solvent concentration (% v/v): 0, reaction temperature 25 °C	0.2	0.24
co-solvent concentration (% v/v): 0, reaction temperature 30 °C	0.23	0.21
co-solvent concentration (% v/v): 0, reaction temperature 35 °C	0.36	0.37
co-solvent concentration (% v/v): 0, reaction temperature 40 °C	0.33	0.23
co-solvent concentration (% v/v): 0, reaction temperature 45 °C	0.1	0.07
co-solvent concentration (% v/v): 5, reaction temperature 25 °C	0.28	0.21
co-solvent concentration (% v/v): 5, reaction temperature 30 °C	0.32	0.29
co-solvent concentration (% v/v): 5, reaction temperature 35 °C	0.47	0.46
co-solvent concentration (% v/v): 5, reaction temperature 40 °C	0.34	0.25
co-solvent concentration (% v/v): 5, reaction temperature 45 °C	0.17	0.12
co-solvent concentration (% v/v): 10, reaction temperature 25 °C	0.27	0.3
co-solvent concentration (% v/v): 10, reaction temperature 30 °C	0.37	0.36
co-solvent concentration (% v/v): 10, reaction temperature 35 °C	0.52	0.52
co-solvent concentration (% v/v): 10, reaction temperature 40 °C	0.21	0.17
co-solvent concentration (% v/v): 10, reaction temperature 45 °C	0.12	0.08
co-solvent concentration (% v/v): 15, reaction temperature 25 °C	0.32	0.33
co-solvent concentration (% v/v): 15, reaction temperature 30 °C	0.36	0.4
co-solvent concentration (% v/v): 15, reaction temperature 35 °C	0.52	–
co-solvent concentration (% v/v): 15, reaction temperature 40 °C	0.09	–
co-solvent concentration (% v/v): 15, reaction temperature 45 °C	0.05	–
co-solvent concentration (% v/v): 20, reaction temperature 25 °C	0.36	–
co-solvent concentration (% v/v): 20, reaction temperature 30 °C	0.35	–
co-solvent concentration (% v/v): 20, reaction temperature 35 °C	0.32	–
co-solvent concentration (% v/v): 20, reaction temperature 40 °C	0.02	–
co-solvent concentration (% v/v): 20, reaction temperature 45 °C	0.02	–
co-solvent concentration (% v/v): 25, reaction temperature 25 °C	0.27	–
co-solvent concentration (% v/v): 25, reaction temperature 30 °C	0.21	–
co-solvent concentration (% v/v): 25, reaction temperature 35 °C	0.03	–
co-solvent concentration (% v/v): 25, reaction temperature 40 °C	0.01	–
co-solvent concentration (% v/v): 25, reaction temperature 45 °C	0.01	–
co-solvent concentration (% v/v): 30, reaction temperature 25 °C	0.15	–
co-solvent concentration (% v/v): 30, reaction temperature 30 °C	0.15	–
co-solvent concentration (% v/v): 30, reaction temperature 35 °C	0.02	–
co-solvent concentration (% v/v): 30, reaction temperature 40 °C	0.01	–
co-solvent concentration (% v/v): 30, reaction temperature 45 °C	0.02	–
co-solvent concentration (% v/v): 35, reaction temperature 25 °C	0.07	–
co-solvent concentration (% v/v): 35, reaction temperature 30 °C	0.03	–
co-solvent concentration (% v/v): 35, reaction temperature 35 °C	0.01	–
co-solvent concentration (% v/v): 35, reaction temperature 40 °C	0.01	–
co-solvent concentration (% v/v): 35, reaction temperature 45 °C	0.03	–
co-solvent concentration (% v/v): 40, reaction temperature 25 °C	0.02	–
co-solvent concentration (% v/v): 40, reaction temperature 30 °C	0.02	–
co-solvent concentration (% v/v): 40, reaction temperature 35 °C	0.01	–
co-solvent concentration (% v/v): 40, reaction temperature 40 °C	0.01	–
co-solvent concentration (% v/v): 40, reaction temperature 45 °C	0.01	–
co-solvent concentration (% v/v): 45, reaction temperature 25 °C	0.01	–
co-solvent concentration (% v/v): 45, reaction temperature 30 °C	0.04	–
co-solvent concentration (% v/v): 45, reaction temperature 35 °C	0.02	–
co-solvent concentration (% v/v): 45, reaction temperature 40 °C	0.01	–
co-solvent concentration (% v/v): 45, reaction temperature 45 °C	0.02	–
